Assay results: US20250101126A1
Substitutions are numbered along the chain they refer to.

Legend:
[1] = biological target: Tn-glycosylated MUC4 on cells (MUC4-Tn; COSMC-KO cells, cancer tissue) (UniProt Q99102); assay: flow cytometry on T3M4 COSMC-KO (T3M4-M) cells
[2] = biological target: MUC4-Tn glycopeptide … (SEQ ID NO:154) with O-linked GalNAc on the serine and threonine at positions 12 and 13; assay: BLI (Octet), MUC4 glycopeptide on biosensor
MUC4-Tn glycopeptide … (SEQ ID NO:154) with O-linked GalNAc on the serine and threonine at positions 12 and 13, sequence (peptide, as listed by the source): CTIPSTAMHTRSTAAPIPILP

B1: 2D5-HV1-69-C/KV2B (antibody, V domains shown)
VH: QVQLVQSGAEVKKPGSSVKVSCKASGYTFSDHAIHWVRQAPGQGLEWLGYISPGNADINYAQKFQGRVTITADKSTSTAYMELSSLRSEDTAVYYCKRSMANSFDYWGQGTLVTVSS
VL: DIVMTQTPLSLPVTPGEPASISCRSSQSVLYSSDEKTYLAWYLQKPGQSPQLLIYWASTRESGVPDRFSGSGSGTDFTLKISRVEAEDVGVYYCHQYLSSYTFGQGTKLEIK
EC50 [1]: 0.0194 µg/mL | Kd [2]: 5.3 nM

B2: 2D5-HV1-69-A/KV2A (antibody, V domains shown)
VH: B1 VH with S30T, A56D, N59Q, A61N, Q62A, Q65K, V68A, I70L, Y95F
VL: B1 VL with M4L, R24K, E35Q, T37N
EC50 [1]: 0.0179 µg/mL | Kd [2]: 4.1 nM

B3: 2D5-HV1-3B/KV2B (antibody, V domains shown)
VH: B1 VH with S16A, S30T, G44R, A56D, N59Q, A61S, Q65K, T76A
VL: B1 VL
EC50 [1]: 0.0163 µg/mL | Kd [2]: 7.7 nM

B4: 2D5-HV1-69-B/KV2B (antibody, V domains shown)
VH: B1 VH with S30T, A56D, N59Q, A61N, Q65K
VL: B1 VL
EC50 [1]: 0.0248 µg/mL | Kd [2]: 3.3 nM
